Experimental data published in the RNAGym collection of RNA variant scans (doi:10.7554/elife.80360).

B1: CPEB3 Ribozyme (parent)
chain: GGGGGCCACAGCAGAAGCGUUCACGUCGCGGCCCCUGUCAGAUUCUGGUGAAUCUGCGAAUUCUGCUGU

Variants of: B1
Assay: self-cleavage, relative activity (ratio to wild type); higher = more cleavage; co-transcriptional

Variant | self-cleavage
GGGGGCCACAGCAGAAGCGUUCAAGUCGCGGCCCCUGUCAGAAUCUGGUGAAUCUGCGAAUUCUGCUGU [C24A U43A] | 0.537
GGGGGCCACAGCAGAAGCGUUCAAGUCGCGGCCCCUGUCAGAGUCUGGUGAAUCUGCGAAUUCUGCUGU [C24A U43G] | 0.427
GGGGGCCACAGCAGAAGCGUUCAGCUCGCGGCCCCUGUCAGAUUCUGGUGAAUCUGCGAAUUCUGCUGU [C24G G25C] | 0.152
GGGGGCCACAGCAGAAGCGUUCAGAUCGCGGCCCCUGUCAGAUUCUGGUGAAUCUGCGAAUUCUGCUGU [C24G G25A] | 0.22
GGGGGCCACAGCAGAAGCGUUCAGGUCGCGGCCCCUGUCAGAUUCUGGUGAGUCUGCGAAUUCUGCUGU [C24G A52G] | 0.527
GGGGGCCACAGCAGAAGCGUUCAGGUCGCGGCCCUUGUCAGAUUCUGGUGAAUCUGCGAAUUCUGCUGU [C24G C35U] | 0.261
GGGGGCCACAGCAGAAGCGUUCAGGUCGCGGCCCGUGUCAGAUUCUGGUGAAUCUGCGAAUUCUGCUGU [C24G C35G] | 0.116
GGGGGCCACAGCAGAAGCGUUCAGGUCGCGGCCCCUGUCAGAUUCUGGUGAAUAUGCGAAUUCUGCUGU [C24G C54A] | 0.267
GGGGGCCACAGCAGAAGCGUUCAGGUCGCGGCCCCUGUCAGAUUCUGGUGAAUGUGCGAAUUCUGCUGU [C24G C54G] | 0.351
GGGGGCCACAGCAGAAGCGUUCAGGUCGCGGCCCCUGUCAGAUUCUGGUGAAUCUGCGCAUUCUGCUGU [C24G A59C] | 0.141
GGGGGCCACAGCAGAAGCGUUCAGGUCGCGGCCCCUGUCAGAUUCUGGUGAAUCUGCGGAUUCUGCUGU [C24G A59G] | 0.518
GGGGGCCACAGCAGAAGCGUUCAGGUCGCGGCCCCUGUCAGAUUCUGGUGAAUCUGCGUAUUCUGCUGU [C24G A59U] | 0.225
GGGGGCCACAGCAGAAGCGUUCAGGUCGAGGCCCCUGUCAGAUUCUGGUGAAUCUGCGAAUUCUGCUGU [C24G C29A] | 0.184
GGGGGCCACAGCAGAAGCGUUCAGGUCGCGGCCCCUGUCAGAUUCUGGUGAAUCUACGAAUUCUGCUGU [C24G G56A] | 0.22
GGGGGCCACAGCAGAAGCGUUCAGGUCGCAGCCCCUGUCAGAUUCUGGUGAAUCUGCGAAUUCUGCUGU [C24G G30A] | 0.308
GGGGGCCACAGCAGAAGCGUUCAGGUCGCUGCCCCUGUCAGAUUCUGGUGAAUCUGCGAAUUCUGCUGU [C24G G30U] | 0.173
GGGGGCCACAGCAGAAGCGUUCAGGUCGCCGCCCCUGUCAGAUUCUGGUGAAUCUGCGAAUUCUGCUGU [C24G G30C] | 0.128
GGGGGCCACAGCAGAAGCGUUCAAGUCGCGGCCCCUGUCAGAUUCUGGUGAAUCUGCGAAUUCUGCUGA [C24A U69A] | 0.825
GGGGGCCACAGCAGAAGCGUUCAAGUCGCGGCCCCUGUCAGAUUCUGGUGAAUCUGCGAAUUCUGCUGG [C24A U69G] | 0.866
GGGGGCCACAGCAGAAGCGUUCAGGUCGCGGCCCCUGUCAGAUUCUGGUGCAUCUGCGAAUUCUGCUGU [C24G A51C] | 0.323

Variant | self-cleavage
GGGGGCCACAGCAGAAGCGUUCAGGUCGCGGCCCCUGUCAGAUUCUGGUGGAUCUGCGAAUUCUGCUGU [C24G A51G] | 0.515
GGGGGCCACAGCAGAAGCGUUCAGGUCGCGGCCCCUGUCAGGUUCUGGUGAAUCUGCGAAUUCUGCUGU [C24G A42G] | 0.404
GGGGGCCACAGCAGAAGCGUUCAGGUCGCGGCCCCUGUCAGUUUCUGGUGAAUCUGCGAAUUCUGCUGU [C24G A42U] | 0.418
GGGGGCCACAGCAGAAGCGUUCAAGUCGCGGCCCCUGUCAGAUUCUGGAGAAUCUGCGAAUUCUGCUGU [C24A U49A] | 0.815
GGGGGCCACAGCAGAAGCGUUCAAGUCGCGGCCCCUGUCAGAUUCCGGUGAAUCUGCGAAUUCUGCUGU [C24A U46C] | 0.754
GGGGGCCACAGCAGAAGCGUUCAAGUCGCGGCCCCUGUCAGAUUCAGGUGAAUCUGCGAAUUCUGCUGU [C24A U46A] | 0.793
GGGGGCCACAGCAGAAGCGUUCAAGUCGCGGCCCCUGUCAGAUUCGGGUGAAUCUGCGAAUUCUGCUGU [C24A U46G] | 0.816
GGGGGCCACAGCAGAAGCGUUCAGGUCGCGGCCCCUGUCAGAUUCUGGUUAAUCUGCGAAUUCUGCUGU [C24G G50U] | 0.441
GGGGGCCACAGCAGAAGCGUUCAGGUCGCGGCCCCUGUCAGAUUCUGGUCAAUCUGCGAAUUCUGCUGU [C24G G50C] | 0.347
GGGGGCCACAGCAGAAGCGUUCAGGUCGCGGCCCCUGUCAGAUUCUGGUAAAUCUGCGAAUUCUGCUGU [C24G G50A] | 0.392
GGGGGCCACAGCAGAAGCGUUCAGGUCGCGGCCCCUGUCACAUUCUGGUGAAUCUGCGAAUUCUGCUGU [C24G G41C] | 0.18
GGGGGCCACAGCAGAAGCGUUCAGGUCGCGGCCCCUGUCAGAUUCUGGUGAAUCUGCGAUUUCUGCUGU [C24G A60U] | 0.226
GGGGGCCACAGCAGAAGCGUUCAGGUCGCGGCCCCUGUCAGAUUCUGGUGAAUCUGCGACUUCUGCUGU [C24G A60C] | 0.205
GGGGGCCACAGCAGAAGCGUUCAGGUCGCGGCCGCUGUCAGAUUCUGGUGAAUCUGCGAAUUCUGCUGU [C24G C34G] | 0.184
GGGGGCCACAGCAGAAGCGUUCAGGUCGCGGCCUCUGUCAGAUUCUGGUGAAUCUGCGAAUUCUGCUGU [C24G C34U] | 0.57
GGGGGCCACAGCAGAAGCGUUCAGGUCGCGGCCACUGUCAGAUUCUGGUGAAUCUGCGAAUUCUGCUGU [C24G C34A] | 0.271
GGGGGCCACAGCAGAAGCGUUCAGGUCGCGGCCCCUGUCAGAUUCUGGUGAAUCUGCGAAUUCUGCUGU [C24G] | 0.499
GGGGGCCACAGCAGAAGCGUUCAGGUCGCGCCCCCUGUCAGAUUCUGGUGAAUCUGCGAAUUCUGCUGU [C24G G31C] | 0.134
GGGGGCCACAGCAGAAGCGUUCAGGUCGCGACCCCUGUCAGAUUCUGGUGAAUCUGCGAAUUCUGCUGU [C24G G31A] | 0.185
